One may read the Ki as the equilibrium dissociation constant of an inhibitor or competing ligand from its target. Usually koff stands for a measure of how fast the partners let go of each other. A high value points to a short-lived complex.

The target of test [1] is PSD-95 PDZ1 (aa 61–151) (UniProt P78352). The experiment in a line: fluorescence polarisation; competition: 25 nM Cy5-labeled probe and a constant concentration of PDZ protein corresponding to the K d of the probe, twofold dilution series of unlabeled peptide (typically 1–512 µM); 10 mM HEPES pH 7.4, 150 mM NaCl, 1% BSA; room temperature; K i calculated from the IC50.
Test [2] has as its target PSD-95 PDZ2 (aa 155–249) (UniProt P78352). Described as above.
For test [3], the target named is PSD-95 PDZ3 (aa 309–401) (UniProt P78352). The description is as above.
In test [4] the target is PSD-95 PDZ1 (aa 61–151) (UniProt P78352). The experiment in a line: SPR; PDZ domains immobilised by amine coupling on Sensor Chip CM5 (PDZ1, PDZ2) or CM4 (PDZ3); peptides injected 1 min, 1 min dissociation, 30 µl/min; […]; HBS-EP+ (10 mM HEPES pH 7.4, 150 mM NaCl, 3 mM EDTA, 0.05% Surfactant P-20). (In general: SPR reads the build-up and loss of mass on a sensor chip optically.)

The target in test [5] is PSD-95 PDZ2 (aa 155–249) (UniProt P78352). Described as above.
The target of test [6] is PSD-95 PDZ3 (aa 309–401) (UniProt P78352). Described as above.

A value given as a limit tells only on which side of the number the result lay.

As for “somatostatin receptor 3 (SSTR3) C-tail peptide, human”, the Ki is 610 µM in the test with PSD-95 PDZ1 (aa 61–151) [1], greater than 1000 µM in the test with PSD-95 PDZ2 (aa 155–249) [2] and 280 µM with PSD-95 PDZ3 (aa 309–401) [3].

Take “chemokine receptor CXCR2 C-tail peptide, human”: the Ki is 280 µM in the test with PSD-95 PDZ1 (aa 61–151) [1], 370 µM with PSD-95 PDZ2 (aa 155–249) [2] and 370 µM with PSD-95 PDZ3 (aa 309–401) [3].

Regarding BAI1 receptor C-tail peptide, human, the figures for the Ki with PSD-95 PDZ1 (aa 61–151) [1], with PSD-95 PDZ2 (aa 155–249) [2] and with PSD-95 PDZ3 (aa 309–401) [3] were 63 µM, 29 µM and 790 µM, respectively.

For the substance “5-hydroxytryptamine receptor 2C (5-HTR2C) C-tail peptide, human”, the koff in the test with PSD-95 PDZ1 (aa 61–151) [4], with PSD-95 PDZ2 (aa 155–249) [5] and with PSD-95 PDZ3 (aa 309–401) [6] was greater than 1 s⁻¹ throughout. Further, the Ki with PSD-95 PDZ1 (aa 61–151) [1] was 100 µM; with PSD-95 PDZ2 (aa 155–249) [2] it was 26 µM; with PSD-95 PDZ3 (aa 309–401) [3], 370 µM.

For “β1-adrenergic receptor (β1AR) C-tail peptide, human”, the values for the Ki in the test with PSD-95 PDZ1 (aa 61–151) [1], with PSD-95 PDZ2 (aa 155–249) [2] and with PSD-95 PDZ3 (aa 309–401) [3] were 430 µM, 120 µM and 360 µM, respectively.

Turning to “5-hydroxytryptamine receptor 2A (5-HTR2A) C-tail peptide, human”, the Ki with PSD-95 PDZ1 (aa 61–151) [1] was 160 µM; with PSD-95 PDZ2 (aa 155–249) [2], 46 µM; in the test with PSD-95 PDZ3 (aa 309–401) [3], greater than 1000 µM.

“human somatostatin receptor 4 (hSSTR4) C-tail peptide”: the Ki with PSD-95 PDZ1 (aa 61–151) [1] is 750 µM; with PSD-95 PDZ2 (aa 155–249) [2] it was 450 µM; with PSD-95 PDZ3 (aa 309–401) [3] it was 600 µM.

Consider “mouse somatostatin receptor 1 (mSSTR1) C-tail peptide”, for which the Ki is 270 µM with PSD-95 PDZ1 (aa 61–151) [1], 90 µM in the test with PSD-95 PDZ2 (aa 155–249) [2] and greater than 1000 µM with PSD-95 PDZ3 (aa 309–401) [3].

As to “somatostatin receptor 2A (SSTR2A) C-tail peptide, human”, the Ki with PSD-95 PDZ1 (aa 61–151) [1] was 620 µM; in the test with PSD-95 PDZ2 (aa 155–249) [2], 230 µM; with PSD-95 PDZ3 (aa 309–401) [3], greater than 1000 µM.

On to “neuropeptide Y receptor Y2 C-tail peptide, human”, for which the Ki is 270 µM with PSD-95 PDZ1 (aa 61–151) [1], 230 µM with PSD-95 PDZ2 (aa 155–249) [2] and greater than 1000 µM with PSD-95 PDZ3 (aa 309–401) [3].

With “mouse somatostatin receptor 4 (mSSTR4) C-tail peptide”, the Ki with PSD-95 PDZ1 (aa 61–151) [1] is greater than 1000 µM; with PSD-95 PDZ2 (aa 155–249) [2], 420 µM; in the test with PSD-95 PDZ3 (aa 309–401) [3] it was greater than 1000 µM.

With “human somatostatin receptor 1 (hSSTR1) C-tail peptide”, the Ki with PSD-95 PDZ1 (aa 61–151) [1] was 50 µM; with PSD-95 PDZ2 (aa 155–249) [2], 28 µM; in the test with PSD-95 PDZ3 (aa 309–401) [3] it was 200 µM.

These data come from PMC3653948, “PDZ Domain-Mediated Interactions of G Protein-Coupled Receptors with Postsynaptic Density Protein 95: Quantitative Characterization of Interactions” (PLoS ONE, 2013).
